Patent US20180280504A1, “GLYCAN-INTERACTING COMPOUNDS AND METHODS OF USE” (SIAMAB THERAPEUTICS, INC., priority 2014, published 2018)

Tests used:
[1] = tested on: MDA-MB-231 parental cells (MDA-STn−); assay: Flow cytometry-based analysis of antibody binding, parental cells; parameters: species or system human
Method: Flow cytometry-based analysis is carried out to elucidate the curve-dose response for binding of antibodies to cell surface antigens. For these analyses, three cell lines are employed.
MDA-MB-231 cells are human breast cancer cells. They are grown in Earle's Minimum Essential Medium supplemented with 10% fetal calf serum (FCS), 100 μg/ml penicillin, 100 UI/ml streptomycin and 45 μg/ml gentamycin. MCF-7 cells are also human breast cancer cells and are grown under the same conditions as MDA-MB-231 cells. Stably transfected versions of MDA-MB-231 and MCF-7 cells (clone TAH3.P10 for MDA-MB-231 cells and clone A12.1 for MCF-7 cells) that over express GalNAc α2,6-sialyltransferase (ST6GalNAc 1,) are also cultured under the same conditions with the exception of an added 1 mg/ml of G418 to support cells expressing the transgene. ST6GalNAc 1 is an enzme capable of sialylating GalNAc. […]
For analysis, cells are harvested using StemPro Accutase (Life Technologies, Carlsbad, Calif.) and washed with PBS comprising 5% FBS before pelleting by light centrifugation. Cell numbers and viability are determined by trypan blue dye exclusion analysis and cell concentrations are adjusted to 5×10^6 cells/ml in PBS with 5% FBS. […] Cells are combined with 50 μl solutions of antibody being analyzed or control antibodies and incubated for 1 hour at 4° C. […]

[2] = tested on: MDA-MB-231 cells expressing cell-surface Neu5Ac-STn; assay: Flow cytometry assay to quantify antibody internalization; format: cell-based, human; conditions: for % cells exhibiting 488 fluorescence: 4° C.; for internalization (conclusion): Neu5Ac-STn-overexpressing MDA-MB-231 cells
Method: For analysis, stably transfected variants of MDA-MB-231 cells (clone TAH3.P10) that express high levels of cell surface-bound Neu5Ac-STn are harvested using 10 mM EDTA and washed with PBS comprising 1% BSA before pelleting by light centrifugation. Cell numbers and viability are determined by trypan blue dye exclusion analysis and cell concentrations are adjusted to 5×10^6 cells/ml in PBS with 1% BSA. 50 μl of cells are added to each well of an assay plate. Cells are combined with 50 μl solutions of antibody or fluorescently-labeled antibody and incubated for 1 hour at 4° C. Following this incubation period, cells are washed with PBS to remove unbound antibody and aliquots are removed for incubation for various times (15, 30, 60 minutes) at 37° C. to allow bound antibody to internalize at a physiologically relevant temperature. After each incubation, cell surface-bound antibody is removed by treating cells with acidic medium (150 mM NaCl, pH=2.5) Cells treated with unlabeled antibody are washed with PBS and fixed with paraformaldehyde fixation buffer (PFA) containing 3% paraformaldehyde and 2% sucrose in PBS for 15 minutes at room temperature. These cells are rinsed again in PBS and treated with blocking buffer made up of PBS with 1% bovine serum albumin (BSA). Cells are incubated for 30 min at room temperature, rinsed in PBS and treated with secondary antibody (allophycocyanin-labeled goat-anti-mouse IgG) for 2 hours at room temperature. All cells are then washed with PBS and subjected to flow cytometry analysis wherein 10,000 events are recorded for each sample. Residual fluorescent signal in acid-treated samples is further quenched via treatment with trypan blue dye.
Flow cytometry analysis was carried out in order to quantify the extent of antibody internalization according to the procedure of Example 15. MDA-MB-231 cells expressing high levels of cell-surface bound Neu5Ac-STn were harvested using StemPro Accutase buffer and washed with PBS comprising 5% FBS before pelleting by light centrifugation. Cell numbers and viability were determined by trypan blue dye exclusion analysis and cell concentrations were adjusted to 5×10^6 cells/ml in PBS with 5% FBS. 50 μl of cells were added to each well of an assay plate. Cells were then combined with 50 μl solutions of antibody S3F or ALEXA FLUOR® 488-conjugated antibodies S3F, 7G9 or GB26.6 and incubated for 1 hour at 4° C. Following this incubation period, cells were washed with PBS to remove unbound antibody and aliquots were removed for incubation for various times (15, 30, 60 minutes) at 37° C. After each incubation, cells were treated with acidic medium (150 mM NaCl, pH=2.5) to remove surface-bound antibody. Cells treated with unlabeled S3F were washed with PBS 5% FCS. Secondary antibody (allophycocyanin-labeled goat-anti-mouse IgG) was added to the cells and incubated for 30 min at 4° C., rinsed in PBS 5% FBS and kept on ice until flow cytometry analysis. All cells were then washed with PBS and subjected to flow cytometry analysis wherein 10,000 events were recorded for each sample.
Culturing and harvesting of MDA-STn+ cells was performed according to Example 14. Staining of MDA-STn+ cells with S3F antibody included either unlabeled S3F or S3F directly labeled with ALEXA FLUOR® 488 (Thermo Fisher Scientific, Pittsburgh, Pa.). Stained control vials were kept at 4° C. until analysis was performed. Controls included a GB26.6 antibody negative control for STn binding, unstained control, and unlabeled S3F antibody followed by an APC secondary antibody. Vials for each experimental time point (15, 30 and 60 min) were incubated in complete media at 37° C. 5% CO2 to allow for antibody internalization. Immediately prior to analysis by flow cytometry, non-internalized antibody was stripped from the cell surface of experimental samples using 150 mM NaCl pH 2.5 (acidic buffer).

[3] = tested on: MDA-MB-231-STn Human Breast Tumor Xenograft; assay: MDA-MB-231-STn xenograft model, clinical observations of tumors; format: in vivo, mouse; conditions: 5 mg/kg i.p. once weekly
Method: Animals were inoculated in the subcutaneous right flank with 5×10^6 breast tumor cells (MDA-MB-231-STn) in matrigel, mean tumor size was 175-225 mm^3 at study initiation. Animals were given either vehicle or antibody drug conjugates (5 mg/kg) by intraperitoneal injection once weekly. Tumor volume and percent body weight change were determined once weekly until study termination. The study was terminated when the tumor in the vehicle control animal reached a mean tumor weight ≥1500 mm^3. SE refers to “standard error.”
Clinical observations of tumor shape, size and disposition were noted throughout the study.

[4] = ALEXA FLUOR 488-conjugated antibody, acid
[5] = ALEXA FLUOR 488-conjugated antibody, no acid

Row | Molecule | binding to MDA parental cells lacking STn [1] | % cells exhibiting 488 fluorescence [2, 4] | % cells exhibiting 488 fluorescence [2, 5] | % fluorescent cells prior to acid treatment and trypan blue exposure ([2]; ALEXA FLUOR 488-conjugated antibody, 37° C. for various times) | % of cells exhibiting fluorescence after acidic buffer and trypan blue ([2]; ALEXA FLUOR 488-conjugated antibody, 37° C., trypan blue quench of surface signal) | % fluorescent cells after trypan blue ([2]; ALEXA FLUOR 488-conjugated antibody, stained at 4° C., trypan blue) | internalization (conclusion) [2] | % cells exhibiting 488 fluorescence ([2]; ALEXA FLUOR 488-conjugated antibody, then 37° C. 15 min, acid) [%] | % cells exhibiting 488 fluorescence ([2]; ALEXA FLUOR 488-conjugated antibody, then 37° C. 15 min, no acid) [%] | % cells exhibiting 488 fluorescence ([2]; ALEXA FLUOR 488-conjugated antibody, then 37° C. 30 min, acid) [%] | % cells exhibiting 488 fluorescence ([2]; ALEXA FLUOR 488-conjugated antibody, then 37° C. 30 min, no acid) [%] | % cells exhibiting 488 fluorescence ([2]; ALEXA FLUOR 488-conjugated antibody, then 37° C. 60 min, acid) [%] | % cells exhibiting 488 fluorescence ([2]; ALEXA FLUOR 488-conjugated antibody, then 37° C. 60 min, no acid) [%] | % of cells exhibiting fluorescence after the staining period ([2]; ALEXA FLUOR 488-conjugated antibody, no acid, range over samples) | clinical observations of tumor shape, size and disposition [3]
1 | 8C11: anti-STn mouse monoclonal, IgG2b κ, from mouse #4407; VH SEQ ID NO: 8, VL SEQ ID NO: 9 (antibody, V domains shown) VH: QVQLKESGPGLVAPSQSLSITCTVSGFSLTSYGVSWVRQPPGKGLEWLGVIWGDGSTNYHSALISRLIISKDNSKSQVFLKLNSLQTDDTATYYCTKGFTYWGQGTLVTVSA VL: QIVLTQSPAIMSASPGEKVTMTCSASSSVSYMHWYQQKSGTSPKRWIFDTSKLASGVPARFSGSGSGTSYSLTISSMEAEDAATYYCQQWSSNLLTFGAGTKLELK | No binding | – | – | – | – | – | – | – | – | – | – | – | – | – | –
2 | 7G9: anti-STn mouse monoclonal, IgG2b κ, from mouse #4407; VH SEQ ID NO: 12, VL SEQ ID NO: 9 (antibody, V domains shown) VH: QVQLKESGPGLVAPSQNLSITCTVSGFSLTSYGVNWVRQPPGKGLEWLGVIWGDGSTNYHSALISRLIISKENSKSQVFLKLNSLQTNDTATYYCTKGFVYWGQGTLVTVSA VL: QIVLTQSPAIMSASPGEKVTMTCSASSSVSYMHWYQQKSGTSPKRWIFDTSKLASGVPARFSGSGSGTSYSLTISSMEAEDAATYYCQQWSSNLLTFGAGTKLELK | – | approximately 70% | approximately 80% | 60-80% | 20-45% | less than 20% | successfully internalized | – | – | – | – | – | – | – | –
3 | S3F: 3F1 variable domains combined with IgG2a constant domains; heavy chain SEQ ID NO: 63, light chain SEQ ID NO: 64 (antibody) heavy: QVQLQQSDAELVKPGASVKISCKASGYTFTDHAIHWVKQKPEQGLDWIGYISPGNGDIKYNEKFKDKVTLTADKSSSTACMHLNSLTSEDSAVYFCKRSLLALDYWGQGTTLTVSSAKTTAPSVYPLAPVCGDTTGSSVTLGCLVKGYFPEPVTLTWNSGSLSSGVHTFPAVLQSDLYTLSSSVTVTSSTWPSQSITCNVAHPASSTKVDKKIEPRGPTIKPCPPCKCPAPNLLGGPSVFIFPPKIKDVLMISLSPIVTCVVVDVSEDDPDVQISWFVNNVEVHTAQTQTHREDYNSTLRVVSALPIQHQDWMSGKEFKCKVNNKDLPAPIERTISKPKGSVRAPQVYVLPPPEEEMTKKQVTLTCMVTDFMPEDIYVEWTNNGKTELNYKNTEPVLDSDGSYFMYSKLRVEKKNWVERNSYSCSVVHEGLHNHHTTKSFSRTPGK light: DIVMTQSHKFMSTSVGDRVSITCKASQDVGTNIAWYQQKPGRSPKVLIYSASTRHTGVPDRFTGSGSGTDFTLTISNVQSEDLTDYFCQQYSSFPLTFGVGTKLELKRADAAPTVSIFPPSSEQLTSGGASVVCFLNNFYPKDINVKWKIDGSERQNGVLNSWTDQDSKDSTYSMSSTLTLTKDEYERHNSYTCEATHKTSTSPIVKSFNRNEC | – | 9.29% | 57.9% | – | – | – | can be internalized | 22.5 | 56.6 | 25.9 | 53.1 | 31.5 | 50.9 | 50-57% | fewer severe tumors with fluid secretion
